Measurements: paper PMC12259851, “Rapid detection and capture of clinical Escherichia coli strains mediated by OmpA-targeting nanobodies” (Communications Biology, 2025)

Key:
[1] = molecular target: T1, OmpA-short on clinical E. coli strain CS#2 (Escherichia coli clinical isolate CS#2 …, UniProt P0A910, strain); test: flow cytometry on cells; as a8, CS#2, with EDTA during staining; conditions: one partner purified
T1 construct: OmpA, short isoform, of clinical isolate CS#2; Dense O-antigen layer; source: endogenous, on cells of clinical E. coli isolate CS#2

[2] = molecular target: T1, OmpA-short on clinical E. coli strain …; test: flow cytometry on cells; as a8, CS#2, with the anticoagulant heparin; conditions: one partner purified
[3] = molecular target: T1, OmpA-short on clinical E. coli strain …; test: flow cytometry on cells; as a8, CS#2, with the anticoagulant citrate phosphate dextrose (CPD); conditions: one partner purified
[4] = molecular target: T2, OmpA-short on E. coli K-12 MC1061 cells (Escherichia coli K-12 MC1061, UniProt P0A910); test: flow cytometry on cells; concentration series of Nb01-AF647; cells fixed after staining (2% PFA), CytoFlex S, triplicates; Hill equation; apparent affinity (EC50); cells grown in LB; conditions: one partner purified
T2 construct: Strain devoid of O-antigen; source: endogenous, on E. coli MC1061 cells

[5] = molecular target: T3, OmpA-short on clinical E. coli strain CS#1 (Escherichia coli clinical isolate CS#1 …, UniProt P0A910, strain); test: as above; conditions: one partner purified
T3 construct: OmpA, short isoform, of clinical isolate CS#1; Loose, partially permeable O-antigen layer; also called clinical strain #1; source: endogenous, on cells of clinical E. coli isolate CS#1

[6] = molecular target: T1, OmpA-short on clinical E. coli strain …; test: as above; conditions: one partner purified
[7] = molecular target: T4, OmpA-short on E. coli K1 strain ATCC 11775 (Escherichia coli K1 ATCC 11775, strain); test: as above; conditions: one partner purified
T4 construct: OmpA, short isoform, of E. coli K1 ATCC 11775; loop regions identical to those of MC1061 OmpA-short; Strain with a K1 polysaccharide capsule; also called E. coli K1 OmpA-short; source: endogenous, on cells of E. coli K1 ATCC 11775
T4 chain: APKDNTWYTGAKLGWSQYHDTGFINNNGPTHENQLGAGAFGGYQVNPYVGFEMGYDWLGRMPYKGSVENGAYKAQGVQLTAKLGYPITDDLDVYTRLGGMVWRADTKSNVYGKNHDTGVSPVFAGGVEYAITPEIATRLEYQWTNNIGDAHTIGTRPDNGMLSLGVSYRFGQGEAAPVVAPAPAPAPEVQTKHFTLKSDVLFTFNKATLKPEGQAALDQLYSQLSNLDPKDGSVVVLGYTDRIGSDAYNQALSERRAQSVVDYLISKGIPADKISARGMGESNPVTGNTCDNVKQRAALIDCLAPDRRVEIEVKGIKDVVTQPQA

[8] = molecular target: T5, Transmembrane domain of OmpA-short (Escherichia coli K-12 MC1061, UniProt P0A910); test: crystal structure; β-barrel domain of OmpA mixed 1:1.1 with the nanobody, sitting drop vapor diffusion at 20 °C; interface analysed with PDBePISA; conditions: both partners purified
T5 construct: OmpA, short isoform, E. coli K-12 MC1061, transmembrane (β-barrel) domain; also called β-barrel domain of OmpA-short

[9] = molecular target: T6, OmpF on E. coli K-12 MC1061 cells (Escherichia coli K-12 MC1061, UniProt P02931); test: flow cytometry on cells; Nb18 on the E. coli K12 strain (Supplementary Fig. 11c); conditions not told for this experiment; conditions: one partner purified
T6 construct: outer membrane protein OmpF, E. coli K-12 MC1061; The homotrimeric state is cited from other work; also called E. coli K12 strain; source: endogenous, on E. coli MC1061 cells
T6 sequence (P02931 23-362): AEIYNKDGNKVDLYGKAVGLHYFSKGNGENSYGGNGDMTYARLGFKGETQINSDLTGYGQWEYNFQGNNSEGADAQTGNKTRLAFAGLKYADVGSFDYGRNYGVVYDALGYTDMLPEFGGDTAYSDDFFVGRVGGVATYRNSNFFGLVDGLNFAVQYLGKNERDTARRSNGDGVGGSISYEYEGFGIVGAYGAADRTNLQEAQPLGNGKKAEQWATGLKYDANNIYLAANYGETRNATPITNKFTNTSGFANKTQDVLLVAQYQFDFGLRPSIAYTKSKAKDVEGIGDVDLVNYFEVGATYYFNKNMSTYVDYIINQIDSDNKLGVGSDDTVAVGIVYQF

B1: Nb01-AF647 (VHH)
VHH: QVQLVESGGGLVQPGGSLRLSCVVSGTGFTFSKSPMSWARQAPGKEREWVSAIFADSSTYYSDSVRGRFTISRDNAKNTVYLQMNNVKPEDTAVYYCGHRRLGKTTYDYRGKGTRVTVSA
notes: nanobody Nb01 (alpaca VHH against OmpA-short); also called AlexaFluor647-labeled Nb01; source: E. coli MC1061 ΔompA (pSBinit), periplasmic extraction, purified (Ni-NTA, SEC), labelled with maleimide-AF647
With B1 the EC50 [1] was 4.98 nM, the EC50 [2] was 4.7 nM and the EC50 [3] was 7.4 nM. The EC50 [4] was 12.9 nM, the EC50 [5] was 25.9 nM and the EC50 [6] was 61.1 nM. It also gave an EC50 [7] of 84.9 nM.

B2: Nb01 (for X-ray crystallography) (VHH)
VHH: QVQLVESGGGLVQPGGSLRLSCVVSGTGFTFSKSPMSWARQAPGKEREWVSAIFADSSTYYSDSVRGRFTISRDNAKNTVYLQMNNVKPEDTAVYYCGHRRLGKTTYDYRGKGTRVTVSA
notes: nanobody Nb01 (alpaca VHH against OmpA-short); source: E. coli MC1061 ΔompA (pBXNPHM3), purified (Ni-NTA, 3C cleavage, reverse Ni-NTA, SEC)
B2: binds [8].

B3: Nb18 (for flow cytometry) (VHH)
VHH: QRQLVESGGGLVQAGGSLTLSCSATGTVPRIDAMGWYRRSTGKKREQVASVGRGGRTNYSDSAKGRFTISRNGNTVTLQMTSLKPEDTDVYFCNALKYGRNADYDDYWGRGTRVTVSA
notes: nanobody Nb18 (alpaca VHH against OmpF); the flow cytometry methods speak of Alexa Fluor 647-labeled nanobodies (cysteine at the C-terminus, pSBinit with myc- and His-tag); also called OmpF nanobody
B3 was tested, and the EC50 [9] was 3 nM.
